Laboratory results published in PMC11519228, “Sugar alcohol degradation in Archaea: uptake and degradation of mannitol and sorbitol in Haloarcula hispanica” (Extremophiles, 2024).

How the values were obtained:
[1] = molecular target: ketohexokinase (KHK) from Haloarcula marismortui (Haloarcula marismortui); experiment: SEC; native molecular mass on a size exclusion column (superdex HiLoad 16/600 200 pg) calibrated with proteins from the HMW and LMW kits; purified His-tagged enzyme
[2] = substrate: OC[C@@H](O)[C@@H](O)[C@H](O)[C@@H](O)CO; experiment: photometric NADH assay, Michaelis-Menten fit; type: biochemical, Haloarcula hispanica; details: 50 mM Tris-HCl, 1.5 M KCl, 37 °C
[3] = substrate: OC[C@@H](O)[C@@H](O)[C@H](O)[C@H](O)CO; experiment: photometric NADH assay, Michaelis-Menten fit; type: biochemical, Haloarcula hispanica; details: 50 mM Tris-HCl, 1.5 M KCl, pH 7.5, 1 mM MnCl2, 1 mM NAD+, 37 °C
[4] = substrate: NC(=O)c1ccc[n+]([C@@H]2O[C@H](COP(=O)(O)OP(=O)(O)OC[C@H]3O[C@@H](n4cnc5c(N)ncnc54)[C@H](O)[C@@H]3O)[C@@H](O)[C@H]2O)c1; experiment: photometric NADH assay, Michaelis-Menten fit; type: biochemical, Haloarcula hispanica; details: 50 mM Tris-HCl, 1.5 M KCl, 37 °C, varied: cofactor
[5] = substrate: Nc1ncnc2c1ncn2[C@@H]1O[C@H](COP(=O)(O)OP(=O)(O)OP(=O)(O)O)[C@@H](O)[C@H]1O; experiment: coupled pyruvate kinase / lactate dehydrogenase photometric assay, Michaelis-Menten fit; type: biochemical, Haloarcula marismortui; details: 100 mM Tris-HCl, 1.5 M KCl, pH 7.5, 20 mM fructose, 10 mM MgCl2, 37 °C
[6] = molecular target: the molecule itself; experiment: SEC; native molecular mass on a size exclusion column (superdex HiLoad 16/600 200 pg) calibrated with proteins from the HMW and LMW kits; purified His-tagged enzyme
[7] = substrate: Nc1ncnc2c1ncn2[C@@H]1O[C@H](COP(=O)(O)OP(=O)(O)OP(=O)(O)O)[C@@H](O)[C@H]1O; experiment: coupled pyruvate kinase / lactate dehydrogenase photometric assay, Michaelis-Menten fit; type: biochemical, Haloarcula hispanica; details: 50 mM Tris-HCl, 1.5 M KCl, pH 7.5, 4 mM fructose-1-phosphate, 10 mM MgCl2, 37 °C

Molecule “ketohexokinase (KHK) from Haloarcula marismortui (enzyme)” has a stoichiometry N [1] of 2.

B1: MtlDH (Haloarcula hispanica ATCC 33960) (protein)
chain: MRASTLTDVGEITVEERDRPDPADDEVLVQVGACSVCMTDYHMYHGTFAAETPLVLGHEGAGTVAEVGADVEGFAVGDRVAINPTVPCNACSYCKKGETHLCENNTSIGGAGDTILDGAFAEYVRVPAINVEDIGEMSFERAALAEPLACCVHGVEQTDIKPGDSVGIIGAGPIGLLLLQAFRNAGAAPIVVSELDDERRELAADLGADAVVDPNEEDPEEAICAAAGGPVDVGAEAIGLVPTIKQANAVTASGGSTLIFGVPDQEATMEISPFDVFFDEVDYRGSFSLTTEDFERAITLLRHERIDAETLITERIGLDDLPTAFERMGNAEGLKKVVVPGDSE
notes: full-length gene from genomic DNA, N-terminal 6xHis tag, expressed in Haloferax volcanii H1209 (pTA963), Ni-NTA and size exclusion
With B1 the Km ([2]; pH 7.5, 1 mM MnCl2, 1 mM NAD+, sorbitol up to 100 mM) was 27.6 ± 2.66 mM, the Km [3] was 2.6 ± 0.27 mM and the Km ([4]; pH 7.5, 1 mM MnCl2, 10 mM mannitol) was 0.42 ± 0.03 mM.

B2: SorDH (Haloarcula hispanica ATCC 33960) (protein)
chain: MRTAVLVEPNEFELEDRPRPSPGPDDVLVAVRDVGICGSDVHYYEHGRIGDYVVEDPLVLGHESAGEVVEVGENVTHHEPGDRVALEPGVPCRRCAHCKRGDYHLCEEVTFMATPPHDGAFTEYVSWPADFAYTLPEAVSTAEGALCEPLSVGIHACRRGSVGTGDTVLITGAGPIGLMVLEAARAAGATDVILTDVVDEKLTFAEERGADLTVNVTETDLDAAVAEYTDGVGADVVVEASGAEPSIKSTIDVVRRGGTVVLVGLASEAEVPIDVLELIDNEVDVHGSFRYKNTYDAAVDLLADGEVDVEGIIDFESELEDIDDAFRRAMEPTVVKGMISLDS
notes: as for B1
B2 showed a Km ([2]; pH 7.5, 1 mM MnCl2, 2 mM NAD+) of 14.7 ± 7.8 mM and a Km ([4]; pH 7.5, 1 mM MnCl2, 15 mM sorbitol) of 1.2 ± 0.35 mM.

B3: KHK (Haloarcula marismortui ATCC 43049) (protein)
chain: MDEETRRAVATADEALPTSDALPDAIDTGRVVFGFDGYLDRVREVVADRIDPESHERLATLESFGDRIDRSVAADSSLSFEWLQQGSRTGGHTSHLARAFGGWSFDPVMVGMYGDPVHDAFETEFGEYELHSLGEPGVTDAVEFDDGKLMLTEIGDTMSLDWAELDTAFGHDRLAEKLDGASLLGTGYWSETPDLPTVFDGLRTLWDGIDDPPETVLVDPGDVRKLDADRLRAGREAIGRLDEVTDVVVTSNRAETGVLADAYAGDAERSFADDAEAVFEALEPTWFVGHGVEQSVVVTAAGTDSVAVPSVSDPELTTSSGDHFNAGLGLARIADLSPAAAVVVGNAVAGYFVRTADQPSLADVRAFVDEYLEKF
notes: full-length gene from genomic DNA, N-terminal 6xHis tag, expressed in Haloferax volcanii H1209 (pTA963)
In the case of B3, the Km [5] is reported as 1.29 ± 0.12 mM.

B4: fructose-1-phosphate kinase (1-PFK) from Haloarcula hispanica (enzyme, UniProt G0HX83 1-302, looked up)
chain: MIVTVTYNPAVDQTIQFDEQMAPDRVMRADEAQFDAGGKGINAAQFLTAMDRPCVATGLLGGFTGSFIRETLQDDGVETAFVDVDGTTRLNTTAIAAAGEYKLNQAGPTVGESVVDALLEQVRAQSPDRVLIGGSLPPGLSPNAIDRIAAGGDWETIVDTGGDVLRELDAQYGLCKPNRAELGDATGADVSTVEGCADAADAFRDRGFDRVLASLGADGAVLVGDTGRLYAEALDINVVDTVGAGDALLSGVLSAWEAGADDETALRTGVAVSSQVVQRAGTAVPDLNDIGSLRDGVTVRQL
notes: fructose-1-phosphate kinase of Haloarcula hispanica, gene fruK (HAH_1077), amplified from genomic DNA; subunits of 31.2 kDa; The gene was cloned into pTA963 with 6 x CAC fused to its 5' end (N-terminal 6 x His tag); also called F1P kinase; fruK; not shown: His6, N-terminal, kept
B4 was tested, and the “stoichiometry N” value [6] was 2 and the Km [7] was 0.06 ± 0.004 mM.
